Test results from US20150266922A1 (GEORG AUGUST UNIVERSITAT GOTTINGEN STIFTUNG OFFENTLICHEN …, published 2015).

Tests used:
[1] = target: T1, Dipeptidyl peptidase 9 (DPP9), recombinant wild-type (human, UniProt Q86TI2 1-863); test: cell-based or functional assay
[2] = target: T1, Dipeptidyl peptidase 9 (DPP9), …; test: cell-based or functional assay; remark: listed apart in the source
SUMO1 = target: T2, SUMO1 (UniProt P63165 1-97, limits assumed); test: competition ELISA: SUMO1 pre-incubated with the peptide, then added to immobilized DPP9
T2 construct: Immobilized on CnBr Sepharose beads or ELISA wells, or free in solution; also called S1
T2 sequence (P63165 1-97 limits assumed): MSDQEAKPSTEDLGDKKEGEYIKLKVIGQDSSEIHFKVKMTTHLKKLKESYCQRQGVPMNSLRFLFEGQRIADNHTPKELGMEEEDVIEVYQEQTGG
Protocol: ELISA: A 96 well plate (Immuno 96 MicroWell™ Solid Plates, Nunc) was coated with 600 ng purified recombinant proteins per well in 100 μl TB, overnight at 4° C. Next, wells were blocked with ELISA buffer (TB supplemented with 3% BSA) for 1 h at room temperature. After blocking, recombinant interacting proteins were added to the wells. Following 2 hours of incubation at 25° C., wells were washed four times. […] After incubation with secondary antibodies, wells were washed with ELISA buffer and ddH20. Reactions were developed with TMB-substrate reagent set from BD (OptEIA substrate). Absorbance was measured at 420 nm on an Appliskan microplate fluorimeter (Thermo Scientific) and the Skanit software. Experiments were performed at least three times, in triplicates.

T1 sequence (Q86TI2 other isoform, or with tags, fused parts or gaps limits assumed, form in doubt): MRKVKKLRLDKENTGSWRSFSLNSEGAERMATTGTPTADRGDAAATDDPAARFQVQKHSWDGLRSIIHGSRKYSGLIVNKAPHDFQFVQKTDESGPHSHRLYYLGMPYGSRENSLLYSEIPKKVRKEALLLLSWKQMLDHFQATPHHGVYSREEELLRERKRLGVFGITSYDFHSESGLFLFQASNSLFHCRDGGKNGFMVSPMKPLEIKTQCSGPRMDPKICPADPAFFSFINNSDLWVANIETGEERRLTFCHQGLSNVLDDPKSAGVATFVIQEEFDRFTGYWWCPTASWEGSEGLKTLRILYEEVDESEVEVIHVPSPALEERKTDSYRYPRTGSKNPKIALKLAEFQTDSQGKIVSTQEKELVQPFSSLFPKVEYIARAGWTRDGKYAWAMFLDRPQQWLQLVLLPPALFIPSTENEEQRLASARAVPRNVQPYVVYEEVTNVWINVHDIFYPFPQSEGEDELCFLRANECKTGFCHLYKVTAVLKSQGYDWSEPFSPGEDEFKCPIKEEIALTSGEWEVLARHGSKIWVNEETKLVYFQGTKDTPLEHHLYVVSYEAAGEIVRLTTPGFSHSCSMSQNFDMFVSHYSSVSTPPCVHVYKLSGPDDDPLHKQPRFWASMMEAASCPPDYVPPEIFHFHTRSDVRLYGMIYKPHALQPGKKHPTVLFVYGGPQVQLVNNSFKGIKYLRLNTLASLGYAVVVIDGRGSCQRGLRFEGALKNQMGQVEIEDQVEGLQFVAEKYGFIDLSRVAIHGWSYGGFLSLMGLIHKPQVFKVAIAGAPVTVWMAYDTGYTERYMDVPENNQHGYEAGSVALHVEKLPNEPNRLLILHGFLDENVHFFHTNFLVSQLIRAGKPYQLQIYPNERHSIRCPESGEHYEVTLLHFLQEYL

% DPP9 activity (Mean), 14 µM peptide [1] [%]	% DPP9 activity (Mean), 10 µM peptide [2] [%]	Binder	other results
79.8	–	RFLFEGQRIADNH [… (SEQ ID NO: 23)]	–
38.4	–	FLFEGQRIA [… (SEQ ID NO: 32)]	–
66.4	–	RFLFEGQRIAD [… (SEQ ID NO: 31)]	–
55.9	–	FLFEGQRI [… (SEQ ID NO: 33)]	–
18.4	–	SLRFLFEGQR [… (SEQ ID NO: 28)]	–
42.7	–	LFEGQRIADNH [… (SEQ ID NO: 24)]	–
29.1	–	SLRFLFEGQRI [… (SEQ ID NO: 27)]	–

Further lines, the binder ahead of its results:

Binder	% DPP9 activity (Mean), 14 µM peptide [1] [%]	% DPP9 activity (Mean), 10 µM peptide [2] [%]	other results
SLRFLAEGQRIADNH [SLRFLAEGQRIADNH (SEQ ID NO: 21)]	72.9	–	–
SLRFLWEGQRIADNH [SLRFLWEGQRIADNH (SEQ ID NO: 18)]	26.9	–	–
RRRRSLRFLYAG [RRRRSLRFLYAG (SEQ ID NO: 47)]	–	91.5	–
SLRFLVEGQRIADNH [SLRFLVEGQRIADNH (SEQ ID NO: 19)]	28.6	–	–
AAASLRFLYEG [AAASLRFLYEG (SEQ ID NO: 44)]	–	91.2	–
VEVIHVPSPALEERKTDSYR (also called peptide corresponding to the extended arm of DPP9) [DPP9-arm peptide (285-VEVIHVPSPALEERKTDSYR-304)]	–	–	binding result (SUMO1): binds
TLRFLFEG [TLRFLFEG (SEQ ID NO: 41)]	–	29.2	–
SLRFLYAG [SLRFLYAG (SEQ ID NO: 40)]	–	16.3	–
SLRFLFDGQRIADNH [SLRFLFDGQRIADNH (SEQ ID NO: 17)]	74.9	–	–
SLRFLFAG [SLRFLFAG (SEQ ID NO: 39)]	–	15.3	–
SLRFLFEGQRIADNR [SLRFLFEGQRIADNR (SEQ ID NO: 16)]	56.4	–	–
SLRFLFEAQRIADNH [SLRFLFEAQRIADNH (SEQ ID NO: 22)]	19.5	–	–
FLIEGQRI [FLIEGQRI (SEQ ID NO: 36)]	49	–	–
RRRRSLRFLFEG [RRRRSLRFLFEG (SEQ ID NO: 46)]	–	92.2	–
SLRFLYEGAAA [SLRFLYEGAAA (SEQ ID NO: 45)]	–	23.9	–
